Experiments:
Type in all cases: physicochemical
[1] = Solution phase stability of free base, methanesulfonic acid salt and nitric acid salt (HPLC), Example 17; settings: solution in distilled water, 25±0.5° C.
Method: (§1) All HPLC spectra were taken on a Waters HPLC that included Breeze software, a Waters 2487 Dual λ Absorbance Detector, a Waters 1525 Binary HPLC Pump, and a Waters 717 plus Autosampler. The column was a Phenomenex Synergi 4μ Hydro-RP 80A, 250×4.60 mm 4μ micron. The 40 minute gradient that was used is described in the table below.
A t=0 h timepoint was taken for each solution. The volumetric flasks were placed in a water bath at 25±0.5° C. and, periodically, a 0.7 mL aliquot was removed and the solution analyzed by HPLC as described in Example 15.

[2] = Solid phase stability of free base, methanesulfonic acid salt and nitric acid salt (HPLC), Example 18; settings: solid stored at 25±0.5° C.
Method: as §1

[3] = Solution phase stability of free base and hydrochloride salt (monomer vs dimer by HPLC), Example 15; settings: for % dimer / % monomer: solution in distilled water, 25±1° C.
Method: A 1.657 mM solution of Ac—PHSCN—NH2 in distilled water and a 1.653 mM solution of the hydrochloride salt of Ac—PHSCN—NH2 in distilled water were placed in a water bath at 25±1° C. Aliquots (800 μL) were periodically removed and the amount of dimerization was determined by HPLC.
as §1
Mobile Phase A: 0.1% TFA in acetonitrile Mobile Phase B: 0.1% TFA in water
(§2) The HPLC peak for Ac-Pro-His-Ser-Cys-Asn-NH2 monomer at approximately 9.2 minutes, and the peak for ATN-161 dimer at approximately 10.0 minutes were integrated in order to determine the percentage of these two species in each sample.

[4] = Solid phase stability of free base and hydrochloride salt (monomer vs dimer by HPLC), Example 16; settings: for % dimer / % monomer: solid stored at 25±1° C.
Method: as §1, §2
Samples of 0.8-1.2 mg of Ac—PHSCN—NH2 and Ac—PHSCN—NH2 hydrochloride salt were weighed into HPLC sample vials and stored at 25±1° C. A 0 h time point was taken. Samples were periodically removed and diluted with distilled water to give a 1 mg/mL solution. The amount of dimerization was determined by HPLC as described in Example 15. The results are illustrated graphically in FIG. 3.

Ac-Pro-His-Ser-Cys-Asn-NH2 Methanesulfonic Acid Salt (Ac-PHSCN-NH2; also: methanesulfonic acid salt)
% dimer ([1]; 0 h): 7.4% | % monomer ([1]; 0 h): 92.6% | % dimer ([1]; 69 h): 22.6% | % monomer ([1]; 69 h): 77.4% | % dimer ([1]; 140 h): 30.3% | % monomer ([1]; 140 h): 69.7% | % dimer ([1]; 213 h): 37.2% | % monomer ([1]; 213 h): 62.8% | % dimer ([1]; 332 h): 48.0% | % monomer ([1]; 332 h): 52.0% | % dimer ([1]; 408 h): 54.5% | % monomer ([1]; 408 h): 45.5% | % dimer ([1]; 479 h): 60.5% | % monomer ([1]; 479 h): 39.5% | % dimer ([1]; 549 h): 66.7% | % monomer ([1]; 549 h): 33.3% | % dimer ([1]; 645 h): 74.3% | % monomer ([1]; 645 h): 25.7% | % dimer ([1]; 720 h): 79.5% | % monomer ([1]; 720 h): 20.5% | % dimer ([1]; 836 h): 84.8% | % monomer ([1]; 836 h): 15.2% | % dimer ([2]; 0 h): 6.8% | % monomer ([2]; 0 h): 93.2% | % dimer ([2]; 161 h): 7.2% | % monomer ([2]; 161 h): 92.8% | % dimer ([2]; 335 h): 7.5% | % monomer ([2]; 335 h): 92.5% | % dimer ([2]; 498 h): 7.0% | % monomer ([2]; 498 h): 93.0% | % dimer ([2]; 670 h): 7.7% | % monomer ([2]; 670 h): 92.3% | % dimer ([2]; 832 h): 7.2% | % monomer ([2]; 832 h): 92.8% | % dimer ([2]; 1003 h): 7.2% | % monomer ([2]; 1003 h): 92.8% | % dimer ([2]; 1170 h): 7.3% | % monomer ([2]; 1170 h): 92.7% | % dimer ([2]; 1363 h): 8.6% | % monomer ([2]; 1363 h): 91.4% | % dimer ([2]; 1506 h): 7.6% | % monomer ([2]; 1506 h): 92.4% | % dimer ([2]; 1698 h): 8.1% | % monomer ([2]; 1698 h): 91.9%

Ac-Pro-His-Ser-Cys-Asn-NH2 (Ac-PHSCN-NH2) [Free Base]
conversion to other products (e.g., the dimer) ([3]; in solution after more than 500 hours at room temperature): completely converted to other products | % dimer ([3]; 0 h): 6.7% | % monomer ([3]; 0 h): 93.3% | % dimer ([3]; 69 h): 17.4% | % monomer ([3]; 69 h): 82.6% | % dimer ([3]; 140 h): 23.5% | % monomer ([3]; 140 h): 76.5% | % dimer ([3]; 188 h): 28.1% | % monomer ([3]; 188 h): 71.9% | % dimer ([3]; 236 h): 34.3% | % monomer ([3]; 236 h): 65.7% | % dimer ([3]; 309 h): 38.9% | % monomer ([3]; 309 h): 61.1% | % dimer ([3]; 357 h): 43.3% | % monomer ([3]; 357 h): 56.7% | % dimer ([3]; 404 h): 51.4% | % monomer ([3]; 404 h): 48.6% | % dimer ([3]; 477 h): 68.7% | % monomer ([3]; 477 h): 31.3% | % dimer ([3]; 525 h): 83.2% | % monomer ([3]; 525 h): 16.8% | % dimer ([3]; 622 h): 100% | % monomer ([3]; 622 h): 0% | % pure in the solid phase ([4]; solid phase, after more than 800 hours at room temperature, i.e., 23-25° C.): greater than 82% | % dimer ([4]; 0 h): 8.5% | % monomer ([4]; 0 h): 91.5% | % dimer ([4]; 73 h): 10.0% | % monomer ([4]; 73 h): 90.0% | % dimer ([4]; 143 h): 11.5% | % monomer ([4]; 143 h): 88.5% | % dimer ([4]; 243 h): 12.7% | % monomer ([4]; 243 h): 87.3% | % dimer ([4]; 312 h): 14.0% | % monomer ([4]; 312 h): 86.0% | % dimer ([4]; 410 h): 13.8% | % monomer ([4]; 410 h): 86.2% | % dimer ([4]; 576 h): 15.2% | % monomer ([4]; 576 h): 84.8% | % dimer ([4]; 677 h): 16.1% | % monomer ([4]; 677 h): 83.9% | % dimer ([4]; 818 h): 17.9% | % monomer ([4]; 818 h): 82.1% | % dimer ([1]; 0 h): 7.8% | % monomer ([1]; 0 h): 92.2% | % dimer ([1]; 69 h): 26.1% | % monomer ([1]; 69 h): 73.9% | % dimer ([1]; 140 h): 30.7% | % monomer ([1]; 140 h): 69.3% | % dimer ([1]; 213 h): 35.0% | % monomer ([1]; 213 h): 65.0% | % dimer ([1]; 332 h): 42.5% | % monomer ([1]; 332 h): 57.5% | % dimer ([1]; 408 h): 46.4% | % monomer ([1]; 408 h): 53.6% | % dimer ([1]; 479 h): 51.0% | % monomer ([1]; 479 h): 49.0% | % dimer ([1]; 549 h): 56.2% | % monomer ([1]; 549 h): 43.8% | % dimer ([1]; 645 h): 68.9% | % monomer ([1]; 645 h): 31.1% | % dimer ([1]; 720 h): 82.2% | % monomer ([1]; 720 h): 17.8% | % dimer ([1]; 836 h): 98.5% | % monomer ([1]; 836 h): 1.5% | % dimer ([2]; 0 h): 6.1% | % monomer ([2]; 0 h): 93.9% | % dimer ([2]; 161 h): 11.6% | % monomer ([2]; 161 h): 88.4% | % dimer ([2]; 335 h): 12.5% | % monomer ([2]; 335 h): 87.5% | % dimer ([2]; 498 h): 14.6% | % monomer ([2]; 498 h): 85.4% | % dimer ([2]; 670 h): 14.8% | % monomer ([2]; 670 h): 85.2% | % dimer ([2]; 832 h): 15.7% | % monomer ([2]; 832 h): 84.3% | % dimer ([2]; 1003 h): 17.0% | % monomer ([2]; 1003 h): 83.0% | % dimer ([2]; 1170 h): 16.5% | % monomer ([2]; 1170 h): 83.5% | % dimer ([2]; 1363 h): 17.6% | % monomer ([2]; 1363 h): 82.4% | % dimer ([2]; 1506 h): 18.6% | % monomer ([2]; 1506 h): 81.4% | % dimer ([2]; 1698 h): 19.2% | % monomer ([2]; 1698 h): 80.8%

Ac-Pro-His-Ser-Cys-Asn-NH2, hydrochloride salt (Ac-PHSCN-NH2; also: hydrochloride salt)
% dimer ([3]; 0 h): 0% | % monomer ([3]; 0 h): 100% | % dimer ([3]; 69 h): 3.3% | % monomer ([3]; 69 h): 96.7% | % dimer ([3]; 140 h): 6.1% | % monomer ([3]; 140 h): 93.9% | % dimer ([3]; 188 h): 6.4% | % monomer ([3]; 188 h): 93.6% | % dimer ([3]; 236 h): 6.8% | % monomer ([3]; 236 h): 93.2% | % dimer ([3]; 309 h): 6.7% | % monomer ([3]; 309 h): 93.3% | % dimer ([3]; 357 h): 6.7% | % monomer ([3]; 357 h): 93.3% | % dimer ([3]; 404 h): 7.3% | % monomer ([3]; 404 h): 92.7% | % dimer ([3]; 477 h): 8.4% | % monomer ([3]; 477 h): 91.6% | % dimer ([3]; 525 h): 9.0% | % monomer ([3]; 525 h): 91.0% | % dimer ([3]; 622 h): 10.7% | % monomer ([3]; 622 h): 89.3% | % dimer ([4]; 0 h): 0% | % monomer ([4]; 0 h): 100% | % dimer ([4]; 73 h): 0% | % monomer ([4]; 73 h): 100% | % dimer ([4]; 143 h): 0% | % monomer ([4]; 143 h): 100% | % dimer ([4]; 243 h): 0% | % monomer ([4]; 243 h): 100% | % dimer ([4]; 312 h): 0% | % monomer ([4]; 312 h): 100% | % dimer ([4]; 410 h): 0% | % monomer ([4]; 410 h): 100% | % dimer ([4]; 576 h): 0.3% | % monomer ([4]; 576 h): 99.7% | % dimer ([4]; 677 h): 0.7% | % monomer ([4]; 677 h): 99.3% | % dimer ([4]; 818 h): 0% | % monomer ([4]; 818 h): 100%

From patent publication US20080261892A1, “Acid Addition Salts of Ac-Phscn-Nh2” (priority 2005, published 2008)
